Several values for one entry are separate records, joined by “and”; a condition that tells them apart may be missing. Equal values may be shown once.

Sequences and labels used below:
B1: Chimeric channel of the TMD from OlCALHM1 and the CTD from HsCALHM2 (OlCALHM1c) (other)
chain: MDKFRMMFQFLQSNQESFMNGICGIMALASAQMYSSFEFSCPCMPEYNYTYGIGLLIIPPIWFFLLGFVLNNNVSVLAEEWKRPTGRRTKDPSVLRYMLCSITQRSLIAPAVWVSVTLMDGKSFLCAFSINLDIEKFGNASLVIGMTETEKLKFLARIPCKDLFEDNEVRVAATRYIKCISQACGWMFLLMMTFTAFLIRAIRPCFTQASYRQEAYWAQYRANEDQLFQRTAEVHSRVLAANNVRRFFGFVALNKDDEELIANFPVEGTQPRPQWNAITGVYLYRENQGLPLYSRLHKWAQGLAGNGAAPDNVEMALLPS
B2: Oryzias latipes CALHM1 truncated at the C terminus (OlCALHM1EM) (domain or fragment)
chain: MDKFRMMFQFLQSNQESFMNGICGIMALASAQMYSSFEFSCPCMPEYNYTYGIGLLIIPPIWFFLLGFVLNNNVSVLAEEWKRPTGRRTKDPSVLRYMLCSITQRSLIAPAVWVSVTLMDGKSFLCAFSINLDIEKFGNASLVIGMTETEKLKFLARIPCKDLFEDNEVRVAATRYIKCISQACGWMFLLMMTFTAFLIRAIRPCFTQAAFLKTKYWSHYIDIERKMFDETCKEHAKSFAKVCIHQYFENISGEMQNFHRHQSKDTSDAEEEEKQRSDEDKLLGIKAQEDMNKVL
B3: Caenorhabditis elegans calcium homeostasis modulator protein CLHM-1 (CeCLHM-1) (natural protein)
chain: MTTSINSVVTVFQNVFTNHGSTLLNGILIATTVGGQSLVRKLTFSCPCAYPLNIYHSLVFMFGPTAALLLIGITVNSTTWKLAHGFFFRVRDTRHSWKTTCVSWIEVLIQSSVAPIAWLFVVFLDGGYYRCYRSHEFCLISDAILCKNSTILNSYASTSSFNKISDNGKYCPPCICVPNPTDASYLEAESQIYAWGLLLFSGVAAFLVITCNRMCDKYTLVQRQYVETYKNVETQKFDAVAKEHASQLAEHNARAFFGQKDWTKRDWDWVSGIPEVNNPLFARLRLIAAEKTQQTMYTPLQLWNDNKGYRIPQPDLQLTQIIVDETKED
B4: Homo sapiens calcium homeostasis modulator 2 (HsCALHM2) (natural protein)
chain: MAALIAENFRFLSLFFKSKDVMIFNGLVALGTVGSQELFSVVAFHCPCSPARNYLYGLAAIGVPALVLFIIGIILNNHTWNLVAECQHRRTKNCSAAPTFLLLSSILGRAAVAPVTWSVISLLRGEAYVCALSEFVDPSSLTAREEHFPSAHATEILARFPCKENPDNLSDFREEVSRRLRYESQLFGWLLIGVVAILVFLTKCLKHYCSPLSYRQEAYWAQYRANEDQLFQRTAEVHSRVLAANNVRRFFGFVALNKDDEELIANFPVEGTQPRPQWNAITGVYLYRENQGLPLYSRLHKWAQGLAGNGAAPDNVEMALLPS

This series concerns the molecule itself. Nature of the series: cryo-EM structure.
In the case of B1, the “stoichiometry N” value was 8 and 9. As to B2, the “stoichiometry N” value came out at 8. The same measure for B3: 9; for B4: 11.

As usually defined, the stoichiometry N is a count of units in the complex or per binding partner.

The values above are taken from article PMC7439320 (Science Advances, 2020).
